Laboratory results reported in US20190248902A1 (published 2019).

T1: soluble human ASGR-1 carbohydrate binding domain (CBD; amino acid residues 154-281; N-terminal 6xHis tag) (human, UniProt P07306 154-281)
T1 construct: also called ASGR-1 CBD
T1 sequence: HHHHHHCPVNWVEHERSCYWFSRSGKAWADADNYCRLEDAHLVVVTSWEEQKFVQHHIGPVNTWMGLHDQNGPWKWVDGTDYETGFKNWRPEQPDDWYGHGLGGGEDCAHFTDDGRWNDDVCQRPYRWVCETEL

T2: human ASGR-1 (wild type) (human, UniProt P07306 1-291)
T2 construct: also called wt ASGR1; huASGR-1
T2 sequence: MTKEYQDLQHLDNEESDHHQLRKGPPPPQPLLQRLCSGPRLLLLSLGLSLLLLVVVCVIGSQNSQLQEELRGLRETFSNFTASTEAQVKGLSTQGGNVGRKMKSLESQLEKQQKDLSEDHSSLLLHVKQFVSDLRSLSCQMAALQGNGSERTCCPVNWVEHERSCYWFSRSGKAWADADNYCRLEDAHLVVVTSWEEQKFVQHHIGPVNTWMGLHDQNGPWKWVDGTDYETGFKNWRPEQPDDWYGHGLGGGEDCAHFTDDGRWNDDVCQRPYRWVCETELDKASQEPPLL

B1: 218G4 (antibody, V domains shown)
VH: QVQLVESGGGVVQPGRSLRLSCAASGFTFSSYGLHWVRQAPGKGLEWVAVIWYDGSNKYYADSVKGRFTISRDNSKNTLYLQMNSLRVEDTAVYYCANWYYYYYGMDVWGQGTTVTVSS
VL: QSVLTQPPSVSAAPGQKVTISCSGSSSNIGNNYVSWYQQLPGTAPKLLLYDSNKRPSGIPARFSGSKSGTSATLGITGLQTGDEADYYCGTWDSSLNTVVFGGGTKLTVL
notes: mAb
B2: 75G3 (antibody, V domains shown)
VH: QVQLQQWGAGLLKPSETLSLTCAVYGGSLSGSYWSWIRQPPGKGLEWIGEINLSGSTNYNPSLKSRVTISVDTSKSQFSLTLRSVTAADTAVYYCARDYGGLDYWGQGTLVTVSS
VL: EIVLTQSPGTLSLSPGERATLSCRARQNVDSSYLAWYQQKPGQAPRLLIYGASSRATGIPDRFSGSGSGTDFTLTISRLEPEDFAVFYCQQYERSPWTFGQGTKVEIK
notes: mAb
B3: 194C10 (antibody, V domains shown)
VH: QVQLQQWGAGLLKPSETLSLTCAVSGGSFRYYYWSWIRQPPGKGLEWFGEINHSGSTNYNPSLKSRVTISIDTSKNQFSLKLRSVTAADTAVYYCARDYGAFDIWGQGTMVTVSS
VL: EIVLTQSPGTLSLSPGERATLSCRASPSVNSGYLAWYQQKPGQTPRLLIFGASSRATGIPDRFSASGSGADFTLTISRLEPEDFAVYFCQQYESSPWTFGQGTKVEIK
notes: mAb
B4: 193E7 (antibody, V domains shown)
VH: QVQLQQWGAGLLKPSETLSLTCAVYGGSFSGYFWTWIRQPPGKGLEWIGEINHSGSTNYNPSLKSRVTISVDTSKNQFSLKLSSVTAADTAVYYCARDYGADYWGQGTLVAVSA
VL: DIQMTQSPSSLSASVGDRVTITCRASQGIRNDLGWYQQKPGKAPKRLIYSASSLQRGVPSRFSGSGSGTEFTLTISSLQPEDFATYYCLQHKRYPLTFGGGTKVEIK
notes: mAb

biological target: T1, soluble human ASGR-1 carbohydrate …; assay: Octet BLI, mAb on AR2G tips, 1:1 fit
Excerpt: To quantitate the binding affinity of specific antibodies for ASGR-1 (either purified from hybridoma supernatants or made recombinantly), association and dissociation rates can be measured using a ForteBio Octet instrument. […] Experimental kinetic results were globally fit to a 1:1 binding model in order to determine the association and dissociation rate constants as well as the equilibrium dissociation constant. Association and dissociation times were chosen to ensure that curvature was present during association curves and measured dissociation levels dropped at least 5% from starting levels. All Octet buffers contained 10 mM Tris (pH7.5), 150 mM NaCl, 1 mM CaCl₂), 0.10 mg/ml BSA and 0.13% Triton X-100. Octet assays were run at 27° C. Because this assay only measures binding to the ASGR-1 CBD, antibodies that recognize epitopes partially or entirely outside the CBD and/or recognize ASGR-1 in the context of a native ASGR complex, for example, as could occur on cell membranes, may not score as positive in this assay.

Row | Binder | Kd
1 | B1 | 2.6 nM
2 | B2 | 1 nM
3 | B3 | 4 nM
4 | B4 | 3.5 nM

biological target: T2, human ASGR-1 (wild type); assay: FACS ratio: 65C12 geomean / this mAb geomean
Procedure, shortened: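 CHO-S cells transiently expressing wild-type or point-mutant hASGR-1 were stained with antibody at 5 ug/ml for 1 h at 4 °C. Bound antibody was detected by Fc-specific Alexa 647 secondary plus 7-AAD and read by flow cytometry. Ratio is 65C12 geomean divided by test mAb geomean, normalizing for expression.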

Row | Binder | Expression Normalization to mAb 65C12
5 | B1 | 4.59
6 | B2 | 1.51
7 | B3 | 1.99
8 | B4 | 1.58
